Changes are numbered by the printed parent chain.
Assays:
Conditions in all cases: label: Alexa680 at 5' and 3'
[1] = biological target: T1, hPUF_MT(R3→R5_C12N, R4→R5_C12N, R5_C12N); assay: EMSA; strongest of the four
T1 chain: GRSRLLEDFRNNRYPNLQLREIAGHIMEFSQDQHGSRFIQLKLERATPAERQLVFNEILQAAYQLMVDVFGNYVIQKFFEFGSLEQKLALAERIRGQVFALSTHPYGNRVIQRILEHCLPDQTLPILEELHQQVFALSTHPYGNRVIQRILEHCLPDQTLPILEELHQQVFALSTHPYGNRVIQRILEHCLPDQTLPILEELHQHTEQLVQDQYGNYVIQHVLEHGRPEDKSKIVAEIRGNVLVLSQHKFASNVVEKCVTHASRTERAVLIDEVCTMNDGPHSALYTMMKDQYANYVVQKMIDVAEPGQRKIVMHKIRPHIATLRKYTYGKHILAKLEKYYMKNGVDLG

[2] = biological target: T2, hPUF_MT(R3→R5, R4→R5, R5; all C12S,Q16E); assay: EMSA; binds only to its target
T2 chain: T1 chain with N108S, Q112E, N144S, Q148E, N180S, Q184E

[3] = biological target: T3, hPUF_MT(R3→R5, R4→R5, R5; all C12S,Q16R); assay: EMSA; binds only to its target
T3 chain: T1 chain with N108S, Q112R, N144S, Q148R, N180S, Q184R

[4] = biological target: T4, hPUF_MT(R5:A_13R)3(R6:C_13Y)3; assay: EMSA; best of three
T4 chain: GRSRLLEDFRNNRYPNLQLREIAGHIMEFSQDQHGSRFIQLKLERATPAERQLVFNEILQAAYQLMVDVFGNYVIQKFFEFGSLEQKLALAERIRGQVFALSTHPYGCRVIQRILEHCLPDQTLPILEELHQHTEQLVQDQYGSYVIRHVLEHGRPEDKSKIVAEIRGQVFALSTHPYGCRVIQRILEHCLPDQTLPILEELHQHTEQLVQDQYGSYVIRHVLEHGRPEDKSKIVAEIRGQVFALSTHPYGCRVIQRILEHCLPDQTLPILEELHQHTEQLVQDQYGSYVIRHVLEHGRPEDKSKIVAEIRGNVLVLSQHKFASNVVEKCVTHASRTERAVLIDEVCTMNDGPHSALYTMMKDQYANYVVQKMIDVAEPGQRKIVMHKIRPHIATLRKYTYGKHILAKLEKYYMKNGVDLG

[5] = biological target: T5, hPUF_MT(R5:G_13R)3(R6:U_13Y)3; assay: EMSA
T5 chain: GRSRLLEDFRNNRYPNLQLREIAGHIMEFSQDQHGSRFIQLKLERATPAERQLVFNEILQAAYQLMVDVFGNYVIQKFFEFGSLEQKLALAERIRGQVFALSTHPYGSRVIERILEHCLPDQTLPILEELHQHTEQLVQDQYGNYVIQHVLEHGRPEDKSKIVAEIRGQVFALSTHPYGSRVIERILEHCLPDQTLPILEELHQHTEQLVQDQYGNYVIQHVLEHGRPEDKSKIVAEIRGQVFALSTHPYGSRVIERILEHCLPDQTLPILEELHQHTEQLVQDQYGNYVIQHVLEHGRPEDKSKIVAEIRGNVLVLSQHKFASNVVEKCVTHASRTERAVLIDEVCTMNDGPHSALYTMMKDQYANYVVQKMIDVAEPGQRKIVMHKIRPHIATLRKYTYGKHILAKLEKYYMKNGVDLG

[6] = biological target: T6, hPUF_MT(R3→R5, R4→R5_R13Y, R5_R13Y); assay: EMSA; H=Y>R>F=W>K
T6 chain: T1 chain with N108C, N144C, R145Y, N180C, R181Y

[7] = biological target: T7, hPUF_MT(R3→R5, R4→R5_R13H, R5_R13H); assay: EMSA; H=Y>R>F=W>K; Example 5-2 states a different order
T7 chain: T1 chain with N108C, N144C, R145H, N180C, R181H

hPUF_MT(R3→R5, R4→R5) = biological target: T8, hPUF_MT(R3→R5, R4→R5); assay: EMSA; A-A stacking: H=Y>R>F=W>K
T8 chain: T1 chain with N108C, N144C, N180C

[8] = biological target: T9, hPUF_MT(R4→R6_N12S,Q16R, R6_N12S,Q16R) (UniProt Q14671 SEQ:1-349); assay: EMSA; comparable to or relatively weaker than WT U recognition
T9 chain: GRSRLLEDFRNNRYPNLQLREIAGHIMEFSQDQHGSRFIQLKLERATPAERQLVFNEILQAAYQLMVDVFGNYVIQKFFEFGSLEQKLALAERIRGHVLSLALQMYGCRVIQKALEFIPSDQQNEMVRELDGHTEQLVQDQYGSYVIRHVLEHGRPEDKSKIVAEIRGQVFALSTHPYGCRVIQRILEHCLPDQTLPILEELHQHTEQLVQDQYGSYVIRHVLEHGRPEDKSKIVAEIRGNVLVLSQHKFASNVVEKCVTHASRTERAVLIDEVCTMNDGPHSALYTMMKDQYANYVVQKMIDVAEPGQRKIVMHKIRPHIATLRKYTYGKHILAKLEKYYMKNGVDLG

[9] = biological target: T10, hPUF_MT(R4→R6_N12C, R6_N12C) (UniProt Q14671 SEQ:1-349); assay: EMSA
T10 chain: T9 chain with S144C, R148Q, S216C, R220Q

[10] = biological target: T11, hPUF_MT(R5:A_13R)3(R6:G_13Y)3; assay: EMSA; best of three
T11 chain: T4 chain with R148E, R220E, R292E

[11] = biological target: T12, hPUF_MT(R4→R6_N12S,Q16E, R6_N12S,Q16E) (UniProt Q14671 SEQ:1-349); assay: EMSA; comparable to or relatively weaker than WT U recognition
T12 chain: T9 chain with R148E, R220E

[12] = biological target: T1, hPUF_MT(R3→R5_C12N, R4→R5_C12N, R5_C12N); assay: EMSA; binds only to its target
[13] = biological target: T3, hPUF_MT(R3→R5, R4→R5, R5; all C12S,Q16R); assay: EMSA; stronger than A-recognising P8
[14] = biological target: T2, hPUF_MT(R3→R5, R4→R5, R5; all C12S,Q16E); assay: EMSA; stronger than A-recognising P8

B1: OTS-1841 (ssRNA)
RNA: CCAGAAUUGUUUUUAUUCG
- binding result [1]: binds
- binding result [2]: no binding
- binding result [3]: no binding

B2: OTS-2004 (Example 5-4) (ssRNA)
RNA: CCAGAAUUGCACACAUAUUCG
- binding result [4]: binds

B3: OTS-2004 (Example 5-6) (ssRNA)
RNA: CCAGAAUUGUGUGUGUAUUCG
- binding result [5]: binds

B4: OTS-1759 (ssRNA)
RNA: CCAGAAUUGUAAAUAUUCG
- binding result [6]: binds
- binding result [7]: binds
- binding result (hPUF_MT(R3→R5, R4→R5)): binds

B5: OTS-1979 (ssRNA)
RNA: CCAGAAUUGCACAUAUUCG
- binding result [8]: binds

B6: OTS-1819 (ssRNA)
RNA: CCAGAAUUGAAAAUAUUCG
- binding signal [9]: ~0.01 fold of U-recognising type

B7: OTS-2008 (ssRNA)
RNA: CCAGAAUUGGAGAGAUAUUCG
- binding result [10]: binds

B8: OTS-1978 (ssRNA)
RNA: CCAGAAUUGGAGAUAUUCG
- binding result [11]: binds

B9: OTS-1843 (ssRNA)
RNA: CCAGAAUUGUCCCUAUUCG
- binding result [2]: no binding
- binding result [12]: no binding
- binding result [13]: binds

B10: OTS-1842 (ssRNA)
RNA: CCAGAAUUGUGGGUAUUCG
- binding result [12]: no binding
- binding result [3]: no binding
- binding result [14]: binds

Reference: patent publication US11472855, “RNA-binding protein” (Panitch Schwarze Belisario & Nadel LLP)
